Measurements reported in publication PMC4686857.

Target: β2 subunit of human LFA-1 expressed in BAF/LFA-1 cells (human) (UniProt P05107)
Test: co-IP; lysates of BAF/LFA-1 cells transfected with vector or Spa-1, ±CXCL12 for 1 min, immunoprecipitated with anti-β2, immunoblotted with anti-FLNa

UniProt P05107, sequence (P05107 23-769): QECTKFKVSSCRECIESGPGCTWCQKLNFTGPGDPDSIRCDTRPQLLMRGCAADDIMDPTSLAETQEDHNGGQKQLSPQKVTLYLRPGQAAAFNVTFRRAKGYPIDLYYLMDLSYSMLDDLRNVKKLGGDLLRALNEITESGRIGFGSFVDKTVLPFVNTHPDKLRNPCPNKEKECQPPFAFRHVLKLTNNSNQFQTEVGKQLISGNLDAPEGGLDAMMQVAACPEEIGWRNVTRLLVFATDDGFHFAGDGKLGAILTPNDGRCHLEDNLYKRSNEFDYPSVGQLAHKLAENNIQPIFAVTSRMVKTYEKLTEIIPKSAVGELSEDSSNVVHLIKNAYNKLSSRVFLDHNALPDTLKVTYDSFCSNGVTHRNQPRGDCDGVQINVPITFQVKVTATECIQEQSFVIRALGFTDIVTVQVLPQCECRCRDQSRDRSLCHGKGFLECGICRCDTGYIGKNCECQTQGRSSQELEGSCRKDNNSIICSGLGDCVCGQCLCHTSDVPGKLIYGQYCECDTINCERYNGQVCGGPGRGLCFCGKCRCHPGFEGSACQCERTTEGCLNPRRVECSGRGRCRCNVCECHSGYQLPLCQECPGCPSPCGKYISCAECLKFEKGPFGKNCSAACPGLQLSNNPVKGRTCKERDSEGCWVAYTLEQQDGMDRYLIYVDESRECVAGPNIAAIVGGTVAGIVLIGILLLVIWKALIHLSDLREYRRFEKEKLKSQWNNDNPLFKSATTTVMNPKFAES

FLNa co-precipitated with β2 after CXCL12 stimulation, Spa-1-expressing cells, percent: 64.7% | FLNa co-precipitated with β2 after CXCL12 stimulation, control cells, percent: 25.2%
Substance: endogenous FLNa of BAF/LFA-1 cells, Q8BTM8 1-2647
